Experimental data reported in patent publication US8470576B2, “Group of novel enantioselective microbial nitrile hydratases with broad substrate specificity” (B.R.A.I.N. AG, priority 2006, dated 2013).

Tests used:
Assay type in all cases: biochemical
[1] = Dependence of NHase activity on the pH
Procedure: Cell free crude extracts from Raoultella terrigena (77.1) were incubated for 5 min at 30° C. and the indicated pH-values. The reaction was subsequently started by addition of substrate (1 mM PPN). The activity was determined as described in example 4. Buffers used: McIlvaine buffer: ˜0.1 M citrate/phosphate-buffer; Tris-buffer: 0.1 M Tris/HCl-buffer
Cell free crude extracts from E. coli BL21 (DE3) pET22-77.1a/pET26—77.1b were incubated for 5 min at 30° C. and the indicated pH-values. The reaction was subsequently started by addition of substrate (1 mM PPN). The activity was determined as described in example 4. Buffers used: McIlvaine buffer: ˜0.1 M citrate/phosphate-buffer; Tris-buffer: 0.1 M Tris/HCl-buffer
Cell free crude extracts from Klebsiella sp. (77.1) and E. coli BL21 (DE3) pET22—77.1a/pET26—77.1b were incubated for 5 min at 30° C. and the indicated pH-values. The reaction was subsequently started by addition of substrate (1 mM PPN). The activity was determined as described in example 4. Buffers used: McIlvaine buffer: ˜0.1 M citrate/phosphate-buffer
Lyophilized cells were incubated for 5 min at the indicated pH-values. The reaction was subsequently started by addition of substrate (1 mM PPN). The activity was determined as described in example 4. Buffers used: McIlvaine buffer: ˜0.1 M citrate/phosphate-buffer; Tris-buffer: 0.1 M Tris/HCl-buffer
Cell free crude extracts were incubated for 5 min at the indicated pH-values. The reaction was subsequently started by addition of substrate (1 mM PPN). The activity was determined as described in example 4. Buffers used: McIlvaine buffer: ˜0.1 M citrate/phosphate-buffer; Tris-buffer: 0.1 M Tris/HCl-buffer
(§1) If not otherwise indicated enzyme samples were prepared as follows: the cells from 1 ml of the culture were washed with 50 mM Tris/HCl pH 7.5 and resuspended in 750 μl of the same buffer. This suspension was incubated at 30° C. in a thermomixer at 1000 rpm. The biotransformation was started by addition of the substrate 2-phenylpropionitrile (PPN) in 50 mM Tris/HCl pH 7.5. The concentration of the substrate was 1 mM, if not otherwise stated. The reaction was stopped after 1 min, 5 min or 10 min as indicated by addition of 1 M HCl. Cells were removed by centrifugation and the supernatant analysed by HPLC for the presence of the corresponding amide. The HPLC analysis was carried out on a system comprising a Surveyor 4 channel Pump, AutoSampler and UVNIS detector at 210 nm from Thermo Finnigan on a Grom-Sil 1200DS-3 cp 3 μm (125×4.6 mm) reverse phase column. As mobile phase, acetonitrile and 0.3% H3PO4 were used in a ratio of 50:50 at a flow of 0.7 ml/min, respectively.
The pH-optimum for the enzyme according to Seq ID No. 2 and 4 (Raoultella terrigena, 77.1) has its pH-optimum at pH 6.75 (FIG. 27).
The NHase according to Seq ID. No. 18 and 20 (Klebsiella oxytoca, 38.1.2) was determined to be between pH 7.0-pH 7.5 (FIG. 28 and FIG. 29). […] At a pH 10, the residual activity of the enzyme is about 65-75%.

[2] = Dependence of NHase activity on the temperature; conditions: for optimal temperature: 1 mM PPN
Procedure: As enzyme samples cell free crude extracts were used either of the heterologously or homologously produced enzyme. The substrate (1 mM 2-phenylpropionitrile (PPN) in 50 mM Tris/HCl pH 7.5)) was equilibrated at the indicated temperatures before the reaction was started by addition of 50 μl of enzyme sample. The activity was determined as described in example 4.
As enzyme samples lyophilized cells or a cell free crude extract were used. The samples were equilibrated for 5 min at the indicated temperatures before the reaction was started by addition of PPN to a final concentration of 1 mM. The activity was determined as described in example 4.
as §1
The optimal temperatures for the NHases according to Seq ID No. 2 and 4 (Raoultella terrigena, 77.1) and Seq ID. No. 18 and 20 (Klebsiella oxytoca, 38.1.2) were determined to be at 45° C. (FIG. 23 and FIG. 24). At 55° C. a residual activity of about 20% was found for the enzyme according to Seq ID-No. 18 and 20 whereas at 60° C. no activity could be determined.

[3] = Enantioselectivity of NHases towards rac-2-phenylpropionitrile (washed cells, chiral HPLC); conditions: for E-value: kinetic resolution of rac-2-phenylpropionitrile; for enantiopreference: rac-2-phenylpropionitrile
Procedure: For the determination of enantioselectivity towards rac-mandelonitrile and 2-phenylpropionitrile 40-50 mg of washed cells were resuspended in 1 ml of 50 mM Tris/HCl pH 7.5. 100 μl of cell suspension were mixed with 800 μl 50 mM Tris/HCl pH 7.5 and incubated at 30° C. in a thermomixer at 1000 rpm. The biotransformation was started by addition of 100 μl of 10 mM rac-mandelonitrile or rac-2-phenylpropionitrile in 50 mM Tris/HCl pH 7.5. The reaction was stopped by addition of 100 μl 1M HCl after 1, 5 or 10 min. Cells were removed by centrifugation and the supernatant analysed by chiral HPLC for the presence of mandeloamide and phenylpropionamide, respectively. rac-Mandeloamide was analysed on a HPLC comprising a Surveyor 4 channel Pump, AutoSampler and UVNIS detector at 210 nm from Thermo Finnigan on a Nucleodex β-OH column (Macherey & Nagel) using 50% methanol/water:water (40:60) as mobile phase at a flow rate of 0.7 ml/min. The apparent enantiomeric ratio (Eapp) of the conversion of mandelonitrile was calculated according to Straathof and Jongejan for asymmetric catalysis (see example 9). In case of 2-phenylpropionamide, the samples were lyophilized and resuspended in n-hexane: 2-propanol (80:20). Prior to injection, the samples were additionally dried with sodium sulfate and were centrifugated at 16,000 g for 5 min. The supernatants were analyzed using a Chiracel OD column (Daicel) on a Spectra System (AS3000, P2000, UV2000 at 210 nm) from Thermo Separation Products with n-hexane: 2-propanol (80:20) as mobile phase at a flow rate of 0.5 ml/min. The enantiomeric ratio (E) of the conversion of PPN was calculated according to Chen et al.

B1: NHase Seq ID No. 2 and 4: nitrile hydratase of Raoultella terrigena strain 77.1, α-subunit SEQ ID NO 2, β-subunit SEQ ID NO 4 (protein)
alpha: MSHKHDHDHTEPPVDIELRVRALESLLQEKGLIDPAALDELIDTYEHKVGPRNGAQVVARAWSDPEYKRRLMENATAAISELGFSGIQGEDMLVVENTPDVHNVTVCTLCSCYPWPVLGLPPVWYKSAPYRSRIVIDPRGVLAEFGLHIPESKEIRVWDSSAELRYLVLPERPAGTDGWSEAQLSELISRDSMIGTGVVTAP
beta: MNGIHDLGGMHGFGPIPTEENEPYFHHEWERRVFPMFASLFVGVHFNVDEFRHSIECMPPADYLQSSYYEHWLHAFETLLLAKGVITVDELWGGAKPTLCKPGTPVLTQDMVSMVVSTGGSARVSHDVAPRFRVGDRVRTKNFNPTTHTRLPRYARDKVGRIEIAHGVFITPDTAAHGLGEHPQHVYSVSFTAQELWGEPRPDNVFIDLWDDYLEEA
modifications: Raoultella terrigena, strain 77.1
**Q.** What does the source list for B1?
**A.** pH-optimum ([1]; 1 mM PPN): 6.75; residual activity at pH 4.0 ([1]; homologously produced enzyme): about 6%; residual activity at pH 10 [1]: about 27%; activity at pH<6.0 ([1]; recombinantly produced enzyme): no activity; optimal temperature [2]: 45 °C; residual activity at 60° C. [2]: 60-79%; E-value [3]: 47; enantiopreference [3]: (S)

B2: NHase Seq ID No. 18 and 20: nitrile hydratase of Klebsiella oxytoca strain 38.1.2, α-subunit SEQ ID NO 18, β-subunit SEQ ID NO 20 (protein)
alpha: MSHKHDHDHTQPPVDIELRVRALESLLQEKGLIDPAALDELIDTYEHKVGPRNGAQVVARAWSDPEYKRRLMENATAAIAELGFSGIQGEDMLVVENTPDVHNVTVCTLCSCYPWPVLGLPPVWYKSAPYRSRIVIDPRGVLAEFGLHIPENKEIRVWDSSAELRYLVLPERPAGTEGWSEAQLSELITRDSMIGTGVVTAP
beta: MNGIHDLGGMHGLGPIPTEENEPYFHHEWERRVFPLFASLFVGGHFNVDEFRHAIERMAPTEYLQSSYYEHWLHAFETLLLAKGVITVEELWGGAKPAPCKPGTPVLTQEMVSMVVSTGGSARVSHDVAPRFRVGDWVRTKNFNPTTHTRLPRYARDKVGRIEIAHGVFITPDTAAHGLGEHPQHVYSVSFTAQALWGEPRPDKVFIDLWDDYLEEA
modifications: Klebsiella oxytoca, strain 38.1.2
**Q.** Which “activity at pH-value<6” value ([1]; crude cell extracts) does the source give for B2 here?
**A.** inactivated

**Q.** What about the “residual activity at pH 3.0” value ([1]; lyophilized cells) of the same molecule?
**A.** about 10%

**Q.** And the “residual activity at pH 10” value [1]?
**A.** 65-75%

**Q.** And the optimal temperature [2]?
**A.** 45 °C

**Q.** What about the “residual activity at 55° C.” value ([2]; 55° C.) of the same molecule?
**A.** about 20%

**Q.** What about the “residual activity at 60° C.” value [2] of the same molecule?
**A.** no activity

**Q.** What about the E-value [3] of the same molecule?
**A.** 35

**Q.** What about the enantiopreference [3] of the same molecule?
**A.** (S)
